Where two headings read alike, the source gives them in different places.
T1: SsoMCM K323A/R440A (Sulfolobus solfataricus, UniProt Q9UXG1 1-686, K323A;R440A)
T1 sequence: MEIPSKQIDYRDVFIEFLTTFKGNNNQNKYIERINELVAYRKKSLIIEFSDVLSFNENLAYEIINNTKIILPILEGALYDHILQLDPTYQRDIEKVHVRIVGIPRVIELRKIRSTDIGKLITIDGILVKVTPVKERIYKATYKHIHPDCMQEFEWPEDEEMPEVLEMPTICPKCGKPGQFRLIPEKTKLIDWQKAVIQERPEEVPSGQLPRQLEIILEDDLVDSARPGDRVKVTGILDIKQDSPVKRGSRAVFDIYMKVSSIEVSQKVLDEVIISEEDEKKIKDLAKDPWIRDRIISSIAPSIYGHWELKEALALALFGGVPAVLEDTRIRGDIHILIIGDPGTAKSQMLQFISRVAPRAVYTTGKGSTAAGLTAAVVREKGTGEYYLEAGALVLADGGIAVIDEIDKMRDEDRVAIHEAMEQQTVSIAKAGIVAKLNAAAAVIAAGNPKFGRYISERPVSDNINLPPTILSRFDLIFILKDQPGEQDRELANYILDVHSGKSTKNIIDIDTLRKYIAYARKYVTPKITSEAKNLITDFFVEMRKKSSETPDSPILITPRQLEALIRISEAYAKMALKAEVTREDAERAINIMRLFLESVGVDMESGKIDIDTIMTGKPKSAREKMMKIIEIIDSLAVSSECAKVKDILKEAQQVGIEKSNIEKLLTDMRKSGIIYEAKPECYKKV

T2: SsoMCM K323A (Sulfolobus solfataricus, UniProt Q9UXG1 1-686, K323A)
T2 sequence: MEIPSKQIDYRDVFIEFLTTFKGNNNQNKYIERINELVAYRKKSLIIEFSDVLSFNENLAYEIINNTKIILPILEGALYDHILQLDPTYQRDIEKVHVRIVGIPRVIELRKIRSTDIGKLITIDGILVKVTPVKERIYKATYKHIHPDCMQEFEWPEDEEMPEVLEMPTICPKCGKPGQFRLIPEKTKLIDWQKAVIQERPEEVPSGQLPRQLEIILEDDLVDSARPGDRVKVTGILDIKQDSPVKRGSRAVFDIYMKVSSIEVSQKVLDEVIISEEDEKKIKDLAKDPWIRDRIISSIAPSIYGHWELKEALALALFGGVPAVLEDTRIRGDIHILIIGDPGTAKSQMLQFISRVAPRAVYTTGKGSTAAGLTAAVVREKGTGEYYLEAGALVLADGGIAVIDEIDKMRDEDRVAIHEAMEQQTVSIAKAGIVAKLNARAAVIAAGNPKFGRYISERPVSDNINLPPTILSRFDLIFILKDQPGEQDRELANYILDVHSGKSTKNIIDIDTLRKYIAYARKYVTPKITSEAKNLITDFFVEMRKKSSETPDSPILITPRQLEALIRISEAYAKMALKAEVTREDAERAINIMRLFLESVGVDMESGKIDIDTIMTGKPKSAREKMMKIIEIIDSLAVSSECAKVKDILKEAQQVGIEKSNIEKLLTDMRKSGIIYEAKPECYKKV

T3: SsoMCM WT (Sulfolobus solfataricus, UniProt Q9UXG1 1-686)
T3 sequence: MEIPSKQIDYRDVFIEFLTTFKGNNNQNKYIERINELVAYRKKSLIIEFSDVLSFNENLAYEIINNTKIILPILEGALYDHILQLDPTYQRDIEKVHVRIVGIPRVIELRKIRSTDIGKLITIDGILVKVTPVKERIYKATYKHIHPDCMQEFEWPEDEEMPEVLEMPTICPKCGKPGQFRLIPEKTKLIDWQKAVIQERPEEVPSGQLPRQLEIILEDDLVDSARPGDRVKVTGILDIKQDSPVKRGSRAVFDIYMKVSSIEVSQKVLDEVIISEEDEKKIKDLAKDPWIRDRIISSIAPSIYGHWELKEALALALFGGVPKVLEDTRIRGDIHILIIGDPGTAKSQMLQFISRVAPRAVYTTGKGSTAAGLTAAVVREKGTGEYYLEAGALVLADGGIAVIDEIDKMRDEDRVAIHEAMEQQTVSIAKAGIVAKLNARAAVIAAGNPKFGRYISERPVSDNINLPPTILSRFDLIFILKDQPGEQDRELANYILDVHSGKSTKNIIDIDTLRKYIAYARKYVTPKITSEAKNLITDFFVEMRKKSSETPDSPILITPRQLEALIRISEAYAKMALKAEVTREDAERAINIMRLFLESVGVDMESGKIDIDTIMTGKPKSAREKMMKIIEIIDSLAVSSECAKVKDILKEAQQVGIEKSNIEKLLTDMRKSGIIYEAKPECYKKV

T4: SsoMCM R440A (Sulfolobus solfataricus, UniProt Q9UXG1 1-686, R440A)
T4 sequence: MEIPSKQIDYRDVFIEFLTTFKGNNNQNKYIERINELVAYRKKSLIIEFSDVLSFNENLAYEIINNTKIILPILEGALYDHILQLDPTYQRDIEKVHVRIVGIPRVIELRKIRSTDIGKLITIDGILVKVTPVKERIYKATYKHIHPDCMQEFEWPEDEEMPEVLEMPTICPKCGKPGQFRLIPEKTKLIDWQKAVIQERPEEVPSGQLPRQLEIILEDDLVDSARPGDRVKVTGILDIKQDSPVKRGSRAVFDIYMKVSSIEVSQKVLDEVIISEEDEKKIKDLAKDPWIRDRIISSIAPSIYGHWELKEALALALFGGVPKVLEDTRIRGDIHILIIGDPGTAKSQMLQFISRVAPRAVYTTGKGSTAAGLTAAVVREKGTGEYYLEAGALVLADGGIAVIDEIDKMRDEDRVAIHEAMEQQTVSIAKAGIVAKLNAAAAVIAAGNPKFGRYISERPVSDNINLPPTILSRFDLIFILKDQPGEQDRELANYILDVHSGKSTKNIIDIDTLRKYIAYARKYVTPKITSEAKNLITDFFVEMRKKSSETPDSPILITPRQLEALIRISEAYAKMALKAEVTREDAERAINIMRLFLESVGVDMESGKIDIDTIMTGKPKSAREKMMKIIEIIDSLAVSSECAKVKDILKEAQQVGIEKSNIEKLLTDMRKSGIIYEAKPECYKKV

B1: fork 5'-tail-50 nt / 3'-tail-30 nt (mixed)
DNA 1: CACCTCTCCCTACGCTTCCCACCCACCCCGACCGGCATCTGCTATGGTACGCTGAGCGAGAGTAGC
DNA 2: CGATGAGAGCCGATGAGAGCCGATGAGAGCGAGTCGCATGGTATCGTCTAGCCGGTCGGGGTGGGTGGGAAGCGTAGGGAGAGGTG
B2: Wild-type SsoMCM fluorescently labelled at the N-terminus with Alexa 488 (donor) or Alexa 555 (acceptor) (protein)
chain: MEIPSKQIDYRDVFIEFLTTFKGNNNQNKYIERINELVAYRKKSLIIEFSDVLSFNENLAYEIINNTKIILPILEGALYDHILQLDPTYQRDIEKVHVRIVGIPRVIELRKIRSTDIGKLITIDGILVKVTPVKERIYKATYKHIHPDCMQEFEWPEDEEMPEVLEMPTICPKCGKPGQFRLIPEKTKLIDWQKAVIQERPEEVPSGQLPRQLEIILEDDLVDSARPGDRVKVTGILDIKQDSPVKRGSRAVFDIYMKVSSIEVSQKVLDEVIISEEDEKKIKDLAKDPWIRDRIISSIAPSIYGHWELKEALALALFGGVPKVLEDTRIRGDIHILIIGDPGTAKSQMLQFISRVAPRAVYTTGKGSTAAGLTAAVVREKGTGEYYLEAGALVLADGGIAVIDEIDKMRDEDRVAIHEAMEQQTVSIAKAGIVAKLNARAAVIAAGNPKFGRYISERPVSDNINLPPTILSRFDLIFILKDQPGEQDRELANYILDVHSGKSTKNIIDIDTLRKYIAYARKYVTPKITSEAKNLITDFFVEMRKKSSETPDSPILITPRQLEALIRISEAYAKMALKAEVTREDAERAINIMRLFLESVGVDMESGKIDIDTIMTGKPKSAREKMMKIIEIIDSLAVSSECAKVKDILKEAQQVGIEKSNIEKLLTDMRKSGIIYEAKPECYKKV

Key:
SsoMCM K323A/R440A = biological target: T1, SsoMCM K323A/R440A; assay: fluorescence anisotropy
SsoMCM K323A = biological target: T2, SsoMCM K323A; assay: fluorescence anisotropy
SsoMCM WT = biological target: T3, SsoMCM WT; assay: fluorescence anisotropy
SsoMCM R440A = biological target: T4, SsoMCM R440A; assay: fluorescence anisotropy
Q9UXG1 [1] = assay: FRET or BRET
Q9UXG1 [2] = assay: FRET or BRET; remark: listed apart in the source
Q9UXG1 [3] = assay: FRET or BRET; remark: listed apart in the source
Q9UXG1 [4] = assay: FRET or BRET; remark: listed apart in the source
Q9UXG1 [5] = assay: FRET or BRET; remark: listed apart in the source

| Binder | Kd (SsoMCM K323A/R440A) | Kd (SsoMCM K323A) | Kd (SsoMCM WT) | Kd (SsoMCM R440A) | kobs1 of MCM subunit exchange (first exponential, direct exchange of subunits) (Q9UXG1 [1]) | kobs1 of MCM subunit exchange (first exponential, direct exchange of subunits) (Q9UXG1 [2]) | kobs1 of MCM subunit exchange (first exponential, direct exchange of subunits) (Q9UXG1 [3]) | kobs1 of MCM subunit exchange (first exponential, direct exchange of subunits) (Q9UXG1 [4]) | kobs1 of MCM subunit exchange (first exponential, direct exchange of subunits) (Q9UXG1 [5]) |
| --- | --- | --- | --- | --- | --- | --- | --- | --- | --- |
| B1 | 90 ± 9 nM | 93 ± 10 nM | 75 ± 13 nM | 92 ± 13 nM |  |  |  |  |  |
| B2 |  |  |  |  | 0.0556 s⁻¹ | 0.192 s⁻¹ | 0.196 s⁻¹ | 0.125 ± 0.005 min⁻¹ | 0.0474 s⁻¹ |

From article PMC3159478 (Nucleic Acids Research, 2011)
